Measurements reported in PMC8070244, “The MarR-Type Regulator PA3458 Is Involved in Osmoadaptation Control in Pseudomonas aeruginosa” (International Journal of Molecular Sciences, 2021).

Biological target: the molecule itself
Assay: SEC-MALS; 100 uL of 1 mg/ml sample on Superdex 200 Increase 10/300 in LEW buffer (50 mM NaH2PO4, 300 mM NaCl pH 8), room temperature, 0.5 mL/min

B1: PA3458-His6 (natural protein, Pseudomonas aeruginosa PAO1161, UniProt Q9HYE8 1-157, looked up)
chain: MVESNKTAADTYSLAIFRAIRRLQQAAEIHSKRLSRYGGLTPLQLLILHVLAVEGELTATQLAKLVSLSQASLSGVLDRLEGRGLLYRRRDEQDRRKSWLHLDPAGHEALAEAPPLLPEYVIERFAALPEWERHGLLAALLRAADLFGLPEEDVEEE
notes: PA3458, MarR-type transcriptional regulator of Pseudomonas aeruginosa PAO1161 (locus D3C65_07830; PAO1 ortholog PA3458), 157 residues (17.6 kDa); the gene was amplified with primers 13#/14# (forward primer begins at the ATG; 483 bp fragment) and cloned NcoI/HindIII in pET28a; it says that the gene (157 codons) was cloned as a PA3458-his6 fusion, with the forward primer starting at the ATG; Linker …
In the case of B1, the “stoichiometry N” value is reported as 4.
